Data from IntAct's records for PubMed 28424519.

Each substance was assayed against snf2_yeast SNF2 (UniProt P22082).
UniProt P22082, sequence (P22082 whole entry): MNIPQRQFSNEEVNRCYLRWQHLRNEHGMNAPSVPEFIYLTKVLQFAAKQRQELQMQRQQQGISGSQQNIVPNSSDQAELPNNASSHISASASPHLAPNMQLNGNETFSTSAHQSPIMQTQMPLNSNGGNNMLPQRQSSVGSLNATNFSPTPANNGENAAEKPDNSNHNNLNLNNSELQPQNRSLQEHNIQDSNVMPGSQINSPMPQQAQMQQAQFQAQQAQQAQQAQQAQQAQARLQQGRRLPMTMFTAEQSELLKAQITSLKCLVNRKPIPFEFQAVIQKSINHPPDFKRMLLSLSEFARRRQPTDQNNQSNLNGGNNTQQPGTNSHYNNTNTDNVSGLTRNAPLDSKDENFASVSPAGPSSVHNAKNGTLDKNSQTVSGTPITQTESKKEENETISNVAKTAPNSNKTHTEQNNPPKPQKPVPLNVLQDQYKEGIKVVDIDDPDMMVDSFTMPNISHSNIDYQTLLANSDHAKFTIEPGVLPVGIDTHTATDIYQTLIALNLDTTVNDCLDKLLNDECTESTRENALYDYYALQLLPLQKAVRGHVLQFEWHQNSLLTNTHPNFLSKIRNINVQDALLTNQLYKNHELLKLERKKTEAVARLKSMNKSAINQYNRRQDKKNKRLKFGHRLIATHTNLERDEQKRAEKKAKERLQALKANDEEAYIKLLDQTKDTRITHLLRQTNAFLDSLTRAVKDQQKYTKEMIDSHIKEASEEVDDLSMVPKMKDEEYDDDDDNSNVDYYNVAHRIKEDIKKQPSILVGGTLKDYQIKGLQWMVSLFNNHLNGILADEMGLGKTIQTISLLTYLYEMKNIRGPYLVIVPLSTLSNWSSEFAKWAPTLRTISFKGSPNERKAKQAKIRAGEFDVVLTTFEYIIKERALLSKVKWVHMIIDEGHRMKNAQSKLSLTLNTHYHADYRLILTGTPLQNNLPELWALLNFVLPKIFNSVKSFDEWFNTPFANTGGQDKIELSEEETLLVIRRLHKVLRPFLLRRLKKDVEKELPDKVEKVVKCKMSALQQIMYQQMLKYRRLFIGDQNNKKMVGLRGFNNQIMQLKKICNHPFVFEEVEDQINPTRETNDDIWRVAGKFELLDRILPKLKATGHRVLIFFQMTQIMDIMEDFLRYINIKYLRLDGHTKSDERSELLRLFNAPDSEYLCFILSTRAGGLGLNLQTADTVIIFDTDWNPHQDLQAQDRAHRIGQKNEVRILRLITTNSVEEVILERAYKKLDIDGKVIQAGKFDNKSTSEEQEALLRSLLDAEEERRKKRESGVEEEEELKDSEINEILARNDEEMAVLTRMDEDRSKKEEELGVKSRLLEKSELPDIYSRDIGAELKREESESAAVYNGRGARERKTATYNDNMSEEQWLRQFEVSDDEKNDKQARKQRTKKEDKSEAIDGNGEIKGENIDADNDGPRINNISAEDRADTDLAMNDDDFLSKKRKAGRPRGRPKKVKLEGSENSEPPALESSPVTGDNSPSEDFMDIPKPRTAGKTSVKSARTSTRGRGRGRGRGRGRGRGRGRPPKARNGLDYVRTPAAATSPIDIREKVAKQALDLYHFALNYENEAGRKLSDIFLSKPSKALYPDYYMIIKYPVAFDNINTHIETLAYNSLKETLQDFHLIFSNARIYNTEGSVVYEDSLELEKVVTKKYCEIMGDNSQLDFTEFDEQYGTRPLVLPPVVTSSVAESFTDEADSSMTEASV

Effect of a mutation on the interaction, decreasing interaction:
Histone H4 (Saccharomyces cerevisiae) (from UniProt P02309) R18A
Histone H4 (Saccharomyces cerevisiae) (from UniProt P02309) R20A
Histone H4 (Saccharomyces cerevisiae) (from UniProt P02309) K17A
Histone H4 (Saccharomyces cerevisiae) (from UniProt P02309) K17A;R18A;R20A
